According to US20190284275A1:
Residue numbers refer to the chain shown, from its start. Values belong to the binder of their own block, whether it stands above or below them.

Target: human KRAS (antigen of the affinity data in Table 1; variant not stated) (human) (UniProt P01116)
Assay: kinetic affinity measurement (Rmax in RU; method and format not named)

Kd: 6.63 nM
koff: 0.0011 s⁻¹
kon: 166000 M⁻¹ s⁻¹
B1: 1F4_5C5 (antibody, V domains shown)
VH: EVQLVQSGGGVVQPGRSLRLSCAASGFTSKKYGMHWVRQAPGKGLEWVAVISHDGSKKYYADSVKGRFTISRDNSKNTLFVQLSSLRPEDTAVYYCATSLYSSMDLWGQGTTVTVSS
VL: QSVVTQPPSVSAAPGQKVTISCSGSNSNIGKNYVSWFQQVPGTAPKLLIFEDNQRPSGIPDRFSASKSGTSASLAISGLQSEDEADYYCAAWDDLGGDHWVFGGGTKLTVL

Kd: 12.6 nM
koff: 0.00229 s⁻¹
kon: 182000 M⁻¹ s⁻¹
B2: 1F4_5F8 (antibody, V domains shown)
VH: B1 VH with K30R, K31N, Y32P
VL: B1 VL with L95S, G96T, D98V

Kd: 9.6 nM
koff: 0.0013 s⁻¹
kon: 135000 M⁻¹ s⁻¹
B3: 1F4_4E10 (antibody, V domains shown)
VH: B1 VH with K30R, K31A, Y32P
VL: B1 VL with L95H, G96N, D98E

Kd: 4.2 nM
B4: 1F4_1E3 (antibody, V domains shown)
VH: B1 VH with K30R, K31H, Y32P
VL: B1 VL with L95Y, G96R, D98P
